The text below walks through data of PMC4245193.

The series deals with stable placental multi-protein complex SPC-1 (donor 1) (Homo sapiens (placenta, donor 1)). Description: tryptophan fluorescence quenching titration (Scatchard). The conditions noted are these: 5' phosphate as printed (pT), 20 mM Tris-HCl pH 7.5, 150 mM NaCl, 0.3 mg/ml SPC, 25 C, excitation 283 nm, emission 338 nm.

Take TAGAAGATCAAA [12-mer ODN]: the dissociation constant Kd (as a rule, the equilibrium constant for the complex coming apart) runs as follows: (high-affinity site (Kd1)) 36 nM; (low-affinity site (Kd2)) 2600 nM.
